In assay [1] the target is T1, human TrkA receptor on the cell surface (human, UniProt P04629 33-796). Kind of assay: flow cytometry on TF-1 cells, control immunoglobulin. Background: Flow cytometry measures light scatter and fluorescence of single cells or particles in a stream.
In assay [2] the target is T1, human TrkA receptor on the cell surface. Kind of assay: cell-based or functional assay.
The target in assay [3] is T2, TrkA-IgG (UniProt P04629 33-423, limits assumed).
T2 construct: also called specific antigen TrkA-IgG; not shown: IgG part of the fusion
Kind of assay: SPR (BIACORE 2000), TrkA-IgG immobilised on CM-5 chip, 'separated 1:1' fit. Here is the method:
Surface plasmon resonance analysis was used to measure the association and dissociation rate constants for binding kinetics of the different antibodies (murine, chimeric, 5 humanised variants) towards TrkA-IgG using BIACORE 2000 (Biacore AB, Uppsala, Sweden). TrkA-IgG was immobilised on a CM-5 sensor chip according to manufacturer's conditions, in a way to achieve an immobilization density of 1100 RU. Each antibody sample was analyzed in antibody concentration ranges of 20-0.63 μg/ml. Calculations from the sensograms were performed by using the BIA evaluation version 3 (1999) software.
Analysis of the individual sets of sensograms was performed with the BIA evaluation version 3 (1999) software. Among the different models tested to fit the kinetics data, the best fitting was obtained with the “separated 1:1” algorithm. In this model, only a defined range of the early association and dissociation curves was used for the calculation.
On the technique in general: SPR reads the build-up and loss of mass on a sensor chip optically.

In assay [4] the target is T1, human TrkA receptor on the cell surface. Kind of assay: flow cytometry on TF-1 cells, 4 µg/ml. Also on record: Geo Mean Fluorescence: reference not given here.
Assay [5] addresses T2, TrkA-IgG. Kind of assay: SPR (BIACORE 2000), TrkA-IgG immobilised on CM-5 chip, 'separated 1:1' fit; separate experiment.

As a reminder, the Kd is the free concentration of one partner at which half of the binding sites on the other are occupied at equilibrium, for simple one-to-one binding. Broadly, the koff is a measure of how fast the partners let go of each other. One may read the kon as a measure of how fast the partners come together.

T2 sequence (P04629 33-423 limits assumed): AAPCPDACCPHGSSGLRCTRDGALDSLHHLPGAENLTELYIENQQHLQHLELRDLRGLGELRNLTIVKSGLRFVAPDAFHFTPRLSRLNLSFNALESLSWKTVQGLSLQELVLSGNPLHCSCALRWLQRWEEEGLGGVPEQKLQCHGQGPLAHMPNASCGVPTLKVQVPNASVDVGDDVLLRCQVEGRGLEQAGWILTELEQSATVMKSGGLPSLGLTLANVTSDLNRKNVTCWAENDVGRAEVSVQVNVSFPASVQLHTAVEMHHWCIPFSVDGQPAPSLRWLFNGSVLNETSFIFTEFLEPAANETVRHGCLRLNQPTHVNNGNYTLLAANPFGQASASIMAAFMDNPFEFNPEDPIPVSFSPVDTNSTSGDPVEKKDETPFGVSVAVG
T1 sequence (P04629 33-796): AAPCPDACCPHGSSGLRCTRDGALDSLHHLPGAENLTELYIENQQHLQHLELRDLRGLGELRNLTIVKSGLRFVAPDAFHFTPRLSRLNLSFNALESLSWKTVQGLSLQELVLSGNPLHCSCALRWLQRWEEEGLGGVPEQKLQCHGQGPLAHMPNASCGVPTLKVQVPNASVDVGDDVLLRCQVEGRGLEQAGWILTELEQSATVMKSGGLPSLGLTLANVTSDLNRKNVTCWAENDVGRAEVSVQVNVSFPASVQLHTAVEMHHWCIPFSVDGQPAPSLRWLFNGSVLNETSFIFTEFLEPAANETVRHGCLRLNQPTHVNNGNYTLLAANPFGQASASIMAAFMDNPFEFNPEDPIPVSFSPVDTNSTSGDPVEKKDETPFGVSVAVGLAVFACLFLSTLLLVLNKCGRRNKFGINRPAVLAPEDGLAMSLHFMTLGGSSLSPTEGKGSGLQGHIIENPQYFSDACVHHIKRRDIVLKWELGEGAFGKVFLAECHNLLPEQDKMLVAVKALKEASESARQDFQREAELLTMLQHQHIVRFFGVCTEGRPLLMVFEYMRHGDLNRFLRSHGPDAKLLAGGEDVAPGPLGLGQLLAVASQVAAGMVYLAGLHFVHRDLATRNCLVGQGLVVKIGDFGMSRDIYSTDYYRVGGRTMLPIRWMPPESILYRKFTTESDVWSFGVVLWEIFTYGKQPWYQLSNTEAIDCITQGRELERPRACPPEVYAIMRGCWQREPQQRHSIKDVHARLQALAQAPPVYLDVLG

In assay [1], Human IgG1 standard control (antibody) displayed a Fold Increase of 1 fold and a Geo Mean Fluorescence of 3.5.

B1: ChimMNAC13 (antibody, V domains shown)
VH: EVKLMESGGGLVQPGGSLKLSCAASGFTFSTYTMSWARQTPEKRLEWVAYISKGGGSTYYPDTVKGRFTISRDNAKNTLYLQMSSLKSEDTALYYCARGAMYGNDFFYPMDYWGQQTSVTVSS
VL: DIVLSQSPAIMSASLGEEITLTCSASSSVSYMHWYQQKSGTSPKLLITTTSNLASGVPSRFSGSGSGTFYSLTISSVEAEDAADYYCHQWSSYPWTFGGGTKLEIK
notes: Corresponds to muMNACEP but has human constant regions instead of mouse constant regions; also called chimNINAC13; mVHEP/mVLEP
B1: in assay [2], the “Proliferation assay on TF1 cells IC50 (µg/ml), EXP-1” value (shortened to “Proliferation assay … EXP-1”) was determined as 0.06 µg/mL and the “Proliferation assay on TF1 cells IC50 (µg/ml), EXP-2” value (shortened to “Proliferation assay … EXP-2”) worked out at 0.58 µg/mL. For the same molecule, in assay [3], binding was put at a Kd of 0.151 nM. For the same molecule, in assay [4], the “Fold Increase” value is 3.2 fold and the “Geo Mean Fluorescence” value amounted to 11.

B2: BXhVH3VL3 (antibody, human IgG1, V domains shown)
VH: EVQLLESGGGLVQPGGSLRLSCAASGFTFSTYTMSWVRQAPGKRLEWVAYISKGGGSTYYPDTVKGRFTISRDNSKNTLYLQMNSLRAEDTAVYYCARGAMYGNDFFYPMDYWGQGTTVTVSS
VL: QIVLTQSPATLSLSPGERATLSCSASSSVSYMHWYQQKPGQSPRLLIYTTSNLASGIPSRFSGSGSGTFYTLTISSLEPEDFAVYYCHQWSSYPWTFGGGTKLEIK
notes: Human IgG1 constant regions (IgG1 expression vectors); also called hVH3/hVL3
For the molecule B2, in assay [2], the “Proliferation assay … EXP-1” value is 0.41 µg/mL and the “Proliferation assay … EXP-2” value was determined as 2.38 µg/mL. In assay [3], this molecule displayed an equilibrium dissociation constant (Kd) of 1.45 nM, a koff of 0.000442 s⁻¹ and a kon of 325000 M⁻¹ s⁻¹. Also, in assay [4], the “Fold Increase” value turned out to be 3.6 fold and the “Geo Mean Fluorescence” value came to 12.6.

B3: HuMNACWO (antibody, V domains shown)
VH: EVQLLESGGGLVQPGGSLRLSCAASGFTFSTYTMSWARQAPGKGLEWVAYISKGGGSTYYPDTVKGRFTISRDNSKNTLYLQMNSLRAEDSAVYYCARGAMFGNDFFFPMDRWGQGTLVTVSS
VL: DIVLTQSPSSLSASVGDRVTITCSASSSVSYMHWYQQKPGQAPKLLIYTTSNLASGVPSRFSGSGSGTDYTLTISSLQPEDVATYYCHQWSSYPWTFGGGTKVEIK
notes: Prior art humanised antibody; also called humanised antibody MNAC13 disclosed in WO 05/061540; HuVHWO/HuVLWO
With B3, in assay [5], the affinity, expressed as Kd, was 41.8 nM; the koff amounted to 0.0309 s⁻¹; the kon is 739000 M⁻¹ s⁻¹.

B4: BXhVH5VL3 (antibody, human IgG1, V domains shown)
VH: EVKLLESGGGLVQPGGSLRLSCAASGFTFSTYTMSWVRQTPGKRLEWVAYISKGGGSTYYPDTVKGRFTISRDNSKNTLYLQMNSLRAEDTAVYYCARGAMYGNDFFYPMDYWGQGTTVTVSS
VL: QIVLTQSPATLSLSPGERATLSCSASSSVSYMHWYQQKPGQSPRLLIYTTSNLASGIPSRFSGSGSGTFYTLTISSLEPEDFAVYYCHQWSSYPWTFGGGTKLEIK
notes: Human IgG1 constant regions (IgG1 expression vectors); also called hVH5/hVL3
As to B4, in assay [2], the “Proliferation assay … EXP-1” value came to 1.4 µg/mL and the “Proliferation assay … EXP-2” value worked out at 1.21 µg/mL. Besides, in assay [3], binding was put at a Kd of 0.662 nM, the koff worked out at 0.000638 s⁻¹ and the association rate constant (kon) is 1e+06 M⁻¹ s⁻¹. Also, in assay [4], the “Fold Increase” value was 3.9 fold and the “Geo Mean Fluorescence” value is 13.7.
